# Experimental data reported in patent US20080125362A1, “Method of screening compound preventing cells from infection with Hepatitis C virus (HCV)” (Japan Tobacco Inc., priority 2004, published 2008).
# B1: human FGF 7 (KGF): human-derived fibroblast growth factor 7 (KGF), commercial product of Pepro Tech (protein)
# chain: CNDMTPEQMATNVNCSSPERHTRSYDYMEGGDIRVRRLFCRTQWYLRIDKRGKVKGTQEMKNNYNIMEIRTVAVGIVAIKGVESEFYLAMNKEGKLYAKKECNEDCNFKELILENHYNTYASAKWTHNGGEMFVALNQKGIPVRGKKTKKEQKTAHFLPMAIT
# B2: human FGF 8: human-derived fibroblast growth factor 8, commercial product of Pepro Tech (protein)
# chain: QVTVQSSPNFTQHVREQSLVTDQLSRRLIRTYQLYSRTSGKHVQVLANKRINAMAEDGDPFAKLIVETDTFGSRVRVRGAETGLYICMNKKGKLIAKSNGKGKDCVFTEIVLENNYTALQNAKYEGWYMAFTRKGRPRKGSKTRQHQREVHFMKRLPRGHHTTEQSLRFEFLNYPPFTRSLRGSQRTWAPEPR
# B3: human FGF 17: human-derived fibroblast growth factor 17, commercial product of Pepro Tech (protein)
# chain: TQGENHPSPNFNQYVRDQGAMTDQLSRRQIREYQLYSRTSGKHVQVTGRRISATAEDGNKFAKLIVETDTFGSRVRIKGAESEKYICMNKRGKLIGKPSGKSKDCVFTEIVLENNYTAFQNARHEGWFMAFTRQGRPRQASRSRQNQREAHFIKRLYQGQLPFPNHAEKQKQFEFVGSAPTRRTKRTRRPQPLT
# B4: human FGF 10: human-derived fibroblast growth factor 10, commercial product of Pepro Tech (protein)
# chain: LGQDMVSPEATNSSSSSFSSPSSAGRHVRSYNHLQGDVRWRKLFSFTKYFLKIEKNGKVSGTKKENCPYSILEITSVEIGVVAVKAINSNYYLAMNKKGKLYGSKEFNNDCKLKERIEENGYNTYASFNWQHNGRQMYVALNGKGAPRRGQKTRRKNTSAHFLPMVVHS
# Assays:
# ΔG/SEAP/HCV E1E2 [1] = assay: Effects of solubilized FGFR-1 to FGFR-4 (FGFR/Fc) on infectivity of pseudotyped HCV to HepG2 cells; format: cell-based; conditions: FGFR/Fc mixed with virus 1 hour before inoculation, FIG. 5
# ΔG/SEAP/HCV E1E2 [2] = assay: Effects of FGF family members on infectivity of pseudotyped HCV to HepG2 cells (SEAP reporter); format: cell-based; conditions: for IC50 ΔG/SEAP/HCV E1E2: growth factor added 1 hour before virus, SEAP in supernatant after 24 hours; for infection of ΔG/SEAP/HCV E1E2: result in words
Molecule,infectivity of ΔG/SEAP/HCV E1E2 (ΔG/SEAP/HCV E1E2 [1]),IC50 ΔG/SEAP/HCV E1E2 (ΔG/SEAP/HCV E1E2 [2]),infection of ΔG/SEAP/HCV E1E2 (ΔG/SEAP/HCV E1E2 [2])
FGFR-4,inhibited,–,–
"human FGF 2 (basic): human-derived fibroblast growth factor 2 (basic), commercial product of Pepro Tech",–,1.36 µg/mL,inhibited
"human FGF 18: human-derived fibroblast growth factor 18, commercial product of Pepro Tech",–,>10 µg/mL,–
"human FGF 20: human-derived fibroblast growth factor 20, commercial product of Pepro Tech",–,>10 µg/mL,–
B1,–,2.32 µg/mL,inhibited
B2,–,8.51 µg/mL,inhibited
B3,–,7.41 µg/mL,inhibited
B4,–,>10 µg/mL,–
